Results from patent publication US11242370B2, “Neuregulin-4 compounds and methods of use” (Eli Lilly and Company, priority 2019, dated 2022).

Target: T1, HER4 receptor extracellular domain (ECD) (Homo sapiens, UniProt Q15303)
T1 construct: C-terminal His-tagged HER4 receptor extracellular domain (ECD) construct
T1 sequence (Q15303 26-651 limits assumed): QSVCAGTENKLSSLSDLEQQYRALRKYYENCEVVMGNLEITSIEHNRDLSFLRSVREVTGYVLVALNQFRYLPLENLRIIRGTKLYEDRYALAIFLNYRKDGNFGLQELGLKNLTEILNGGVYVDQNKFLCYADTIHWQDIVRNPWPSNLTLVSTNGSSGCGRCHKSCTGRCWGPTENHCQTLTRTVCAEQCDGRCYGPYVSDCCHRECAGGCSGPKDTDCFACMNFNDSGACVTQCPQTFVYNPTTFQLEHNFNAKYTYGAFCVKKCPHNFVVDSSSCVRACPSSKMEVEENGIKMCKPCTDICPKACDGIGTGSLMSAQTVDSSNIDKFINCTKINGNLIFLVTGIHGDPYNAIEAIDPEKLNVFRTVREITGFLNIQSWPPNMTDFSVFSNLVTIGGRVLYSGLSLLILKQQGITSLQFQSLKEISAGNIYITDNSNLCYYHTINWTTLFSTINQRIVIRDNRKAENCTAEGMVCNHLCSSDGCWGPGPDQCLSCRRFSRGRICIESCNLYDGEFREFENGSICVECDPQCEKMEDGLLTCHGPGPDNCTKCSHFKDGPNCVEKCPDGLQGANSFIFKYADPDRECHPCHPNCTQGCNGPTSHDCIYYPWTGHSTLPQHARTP
Experiment: HER4/NRG-Fc binding assay (ELISA) for screening NRG4 variants
Method: A binding assay is utilized to perform high-throughput screening of NRG4 variant Fc fusion proteins to HER4 receptor, to identify affinity-driven variants with the potential to increase receptor activation and signaling. ELISA plates are coated with an anti-His tag antibody at 2 μg/ml in PBS to facilitate the standardized capture of a C-terminal His-tagged HER4 receptor extracellular domain (ECD) construct after blocking the plate with 1% BSA/PBS/0.1% Tween 20 (HER4 ECD at 5 μg/ml). Saturating amounts of unpurified NRG4-Fc variants in expression media (Starting at 10 μg/ml with serial dilutions in 1% BSA/PBS/0.1% Tween 20) are incubated with the captured receptor for 1 hour. After washing, bound variant NRG4-Fc is detected colorimetrically with an anti-human Fc-specific alkaline phosphatase secondary detection reagent to quantitate binding. Incubation times of variant binding to receptor or durations of the subsequent wash steps are varied to further identify binding variants driven by affinity on-rate and off-rate, respectively.

[1] = Dose # 1: Example 1 10.65, WT NRG1 10, WT NRG4 17 μg/mL
[2] = Dose # 2: Example 1 5.325, WT NRG1 5, WT NRG4 8.5 μg/mL
[3] = Dose # 3: Example 1 2.6625, WT NRG1 2.5, WT NRG4 4.25 μg/mL
[4] = Dose # 4: Example 1 1.33125, WT NRG1 1.25, WT NRG4 2.125 μg/mL
[5] = Dose # 5: Example 1 0.665625, WT NRG1 0.625, WT NRG4 1.0625 μg/mL
[6] = Dose # 6: Example 1 0.332813, WT NRG1 0.3125, WT NRG4 0.53125 μg/mL
[7] = Dose # 7: Example 1 0.166406, WT NRG1 0.15625, WT NRG4 0.265625 μg/mL
[8] = Dose # 8: Example 1 0.083203, WT NRG1 0.078125, WT NRG4 0.132813 μg/mL
[9] = Dose # 9: Example 1 0.041602, WT NRG1 0.039063, WT NRG4 0.066406 μg/mL
[10] = Dose # 10: Example 1 0.020801, WT NRG1 0.019531, WT NRG4 0.033203 μg/mL
[11] = Dose # 11: Example 1 0.0104, WT NRG1 0.009766, WT NRG4 0.016602 μg/mL
[12] = Dose # 12: Example 1 0.0052, WT NRG1 0.004883, WT NRG4 0.008301 μg/mL

O.D. 405, binding to HER4 extracellular domain [1] | O.D. 405, binding to HER4 extracellular domain [2] | O.D. 405, binding to HER4 extracellular domain [3] | O.D. 405, binding to HER4 extracellular domain [4] | O.D. 405, binding to HER4 extracellular domain [5] | O.D. 405, binding to HER4 extracellular domain [6] | O.D. 405, binding to HER4 extracellular domain [7] | O.D. 405, binding to HER4 extracellular domain [8] | O.D. 405, binding to HER4 extracellular domain [9] | O.D. 405, binding to HER4 extracellular domain [10] | O.D. 405, binding to HER4 extracellular domain [11] | O.D. 405, binding to HER4 extracellular domain [12] | Substance
0.651 | 0.597 | 0.485 | 0.347 | 0.224 | 0.154 | 0.111 | 0.088 | 0.071 | 0.07 | 0.066 | 0.066 | WT NRG4: wild type human NRG4 (SEQ ID NO:1); parental hFcNRG4 in screening (Tables 4-6), native peptide from Reprokine in Tables 7-9 (DHEEPCGPSHKSFCLNGGLCYVIPTIPSPFCRCVENYTGARCEEVFL; listed as Homo sapiens)
1.501 | 1.439 | 1.399 | 1.31 | 1.27 | 1.022 | 0.8 | 0.514 | 0.316 | 0.179 | 0.114 | 0.084 | WT NRG1: wild type human NRG1; native peptide purchased from Reprokine in Tables 7-9; comparator in the screening assays of Tables 4 and 6
